Measurements reported in patent US20240392008A1.

Molecular target: CD25 (IL-2Rα) (UniProt P01589)
Assay: cell-based or functional assay

Chain of UniProt P01589 (P01589 22-272 limits assumed): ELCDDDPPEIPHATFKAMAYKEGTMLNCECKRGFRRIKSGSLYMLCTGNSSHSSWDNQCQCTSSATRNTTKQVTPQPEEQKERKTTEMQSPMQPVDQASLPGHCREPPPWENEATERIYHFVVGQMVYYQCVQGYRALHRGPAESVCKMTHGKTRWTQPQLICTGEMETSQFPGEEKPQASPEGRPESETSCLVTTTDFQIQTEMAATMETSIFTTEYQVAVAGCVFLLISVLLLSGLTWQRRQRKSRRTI

percent of pSTAT5+ cells among Treg (flow cytometry on PBMC, 20 min): 3 log
B1: IC-T6-IC-IL2v (IL2v immunoconjugate) (protein, part only; not given: isotype control Fab and Fc chains, not shown: a dimerising Fc or GST)
chain, part: APASSSTKKTQLQLEHLLLDLQMILNGINNYKNPKLTRMLTAKFAMPKKATELKHLQCLEEELKPLEEVLNGAQSKNFHLRPRDLISNINVIVLELKGSETTFMCEYADETATIVEFLNRWITFAQSIISTLT
